Reference: paper PMC2390755

Target: TAP-tagged ISWI (D. melanogaster) (UniProt Q24368)
Test: pull-down; tandem affinity purification of TAP-tagged ISWI from larval nuclear extracts (IPP150 buffer): IgG agarose, TEV cleavage, calmodulin resin, SDS elution; Western blot for ISWI, Sin3A, Rpd3; untagged extracts as control

Chain of UniProt Q24368 (Q24368 whole entry): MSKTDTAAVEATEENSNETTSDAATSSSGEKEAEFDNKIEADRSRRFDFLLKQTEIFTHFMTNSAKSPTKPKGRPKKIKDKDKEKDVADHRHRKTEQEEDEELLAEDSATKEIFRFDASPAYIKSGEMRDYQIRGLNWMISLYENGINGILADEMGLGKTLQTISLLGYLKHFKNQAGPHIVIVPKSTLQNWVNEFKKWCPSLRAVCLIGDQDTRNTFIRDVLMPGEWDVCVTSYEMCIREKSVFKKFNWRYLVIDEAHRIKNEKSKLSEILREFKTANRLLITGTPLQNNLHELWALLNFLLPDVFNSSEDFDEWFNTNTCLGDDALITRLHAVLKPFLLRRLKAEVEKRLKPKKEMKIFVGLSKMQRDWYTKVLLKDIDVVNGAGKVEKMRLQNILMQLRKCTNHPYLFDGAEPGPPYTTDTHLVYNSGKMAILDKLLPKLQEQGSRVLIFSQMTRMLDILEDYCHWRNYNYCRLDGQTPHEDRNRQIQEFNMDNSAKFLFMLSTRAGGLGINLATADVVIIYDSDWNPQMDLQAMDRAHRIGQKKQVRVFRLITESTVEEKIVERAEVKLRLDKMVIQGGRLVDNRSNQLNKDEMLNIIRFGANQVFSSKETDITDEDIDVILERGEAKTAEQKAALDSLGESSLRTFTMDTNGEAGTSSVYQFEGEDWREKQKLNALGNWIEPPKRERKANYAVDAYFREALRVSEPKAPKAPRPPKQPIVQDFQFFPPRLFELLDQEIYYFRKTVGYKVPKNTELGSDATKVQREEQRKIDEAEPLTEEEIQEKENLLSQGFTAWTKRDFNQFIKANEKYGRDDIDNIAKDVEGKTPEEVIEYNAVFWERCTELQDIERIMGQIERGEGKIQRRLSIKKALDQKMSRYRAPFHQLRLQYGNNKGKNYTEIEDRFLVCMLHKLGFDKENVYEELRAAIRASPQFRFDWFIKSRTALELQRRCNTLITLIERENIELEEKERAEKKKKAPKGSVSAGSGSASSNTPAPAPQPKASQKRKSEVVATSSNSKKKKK

## Sin3A (natural protein)
  percent of the total protein in larval nuclear extract associated with ISWI (densitometry): 15%
